The data set is described as follows: self-splicing fitness, log relative to wild type (ln ratio); higher = more splicing; Tetrahymena group I intron in knt gene, E. coli kanamycin selection, DiMSum; sequences stand for … in CUCUCU…GGAGGGAAAAGUUAUCAGGCAUGCACCUGGUAGCUAGUCUUUAAACCAAUAGAUUGCAUCGGUUUAAAAGGCAAGACCGUCAAAUUGCGGGAAAGGGGUCAACAGCCGUUCAGUACCAAGUCUCAGGGGAAACUUUGAGAUGGCCUUGCAAAGGGUAUGGUAAUAAGCUGACGGACAUGGUCCUAACCACGCAGCCAAGUCCUAAGUCAACAGAUCUUCUGUUGAUAUGGAUGCAGUUCACAGACUAAAUGUCGGUCGGGGAAGAUGUAUUCUUCUCAUAAGAUAUAGUCGGACCUCUCCUUAAUGGGAGCUAGCGGAUGAAGUGAUGCAACACUGGAGCCGCUGGGAACUAAUUUGUAUGCGAAAGUAUAUUGAUUAGUUUUGGAGUACUCGUGGUCG
A digest of the protocol: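 Pooled colonies went to amplicon sequencing on an Illumina HiSeq 2500 after six replicate transformations. The plates were LB agar with 100 μg/mL carbenicillin, 50 μM IPTG and 0.2% rhamnose, with or without 25 μg/mL kanamycin, incubated overnight at 37°C or 30°C. The E. coli BL21(DE3) library had all eight P1ex-region intron nucleotides randomised, the intron placed in the knt kanamycin-resistance gene on pET-22b(+). DiMSum fitness is the error-weighted combination of replicate fold changes, kanamycin against none, normalised to wild type.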

± gives the uncertainty stated by the source.

Consider UACCAGCAAUAUUACGUCAU, for which the “self-splicing fitness (ln)” value (30 °C) was -2.21 ± 0.085 and the “self-splicing fitness (ln)” value (37 °C) was -1.52 ± 0.088.
On the same counts, the results for UACCAGCAAUAUUACGUGAC are -3.12 ± 0.13 and -1.12 ± 0.14.
On the same counts, the results for UACCAGCAAUAUUACGUUAA are -1.36 ± 0.073 and -0.903 ± 0.081.
On the same counts, the results for UACCAGCAAUAUUACGUUUC are -4 ± 0.28 and -2.56 ± 0.22.
As to UACGAGCAAUAUUACGACUU, the “self-splicing fitness (ln)” value runs as follows: (30 °C) -2.11 ± 0.13; (37 °C) -0.959 ± 0.15.
For UACGAGCAAUAUUACGAGCU, under “30 °C”, the “self-splicing fitness (ln)” value was -2.28 ± 0.33.
Take UACGAGCAAUAUUACGAUCC: the “self-splicing fitness (ln)” value (30 °C) was -3.23 ± 0.33.
With UACGAGCAAUAUUACGAUCG, the “self-splicing fitness (ln)” value is, setting by setting: (30 °C) -0.594 ± 0.1; (37 °C) -0.663 ± 0.13.
On the same counts, the results for UACGAGCAAUAUUACGCAAG are -2.57 ± 0.15 and -2.03 ± 0.35.
For UACGAGCAAUAUUACGCACC, where the note is “30 °C”, the “self-splicing fitness (ln)” value is -1.91 ± 0.39.
With UACGAGCAAUAUUACGCAGG, the “self-splicing fitness (ln)” value was -2.88 ± 0.21 (30 °C) and -2.64 ± 0.22 (37 °C).
Regarding UACGAGCAAUAUUACGCCCC, the “self-splicing fitness (ln)” value (30 °C) is -2.16 ± 0.44.
Turning to UACGAGCAAUAUUACGCCGG, the “self-splicing fitness (ln)” value (30 °C) is -2.84 ± 0.29 and the “self-splicing fitness (ln)” value (37 °C) amounted to 0.206 ± 0.22.
For UACGAGCAAUAUUACGCGUC, the “self-splicing fitness (ln)” value reads like this: (30 °C) -1.91 ± 0.13; (37 °C) -2.3 ± 0.19.
UACGAGCAAUAUUACGCGUU: the “self-splicing fitness (ln)” value reads like this: (30 °C) -1.67 ± 0.2; (37 °C) -3.64 ± 0.42.
For UACGAGCAAUAUUACGCUAA the same measures were -2.89 ± 0.42 and -2.85 ± 0.35.
For UACGAGCAAUAUUACGCUGU, the “self-splicing fitness (ln)” value (30 °C) was -2.78 ± 0.28 and the “self-splicing fitness (ln)” value (37 °C) was -1.47 ± 0.39.
For UACGAGCAAUAUUACGCUUU the same measures were -4.61 ± 0.42 and -2.4 ± 0.22.
For the sequence UACGAGCAAUAUUACGGAGU, the “self-splicing fitness (ln)” value (37 °C) was -2.68 ± 0.23.
On to UACGAGCAAUAUUACGGCGG, for which the “self-splicing fitness (ln)” value is, setting by setting: (30 °C) -1.79 ± 0.13; (37 °C) -1.08 ± 0.17.
For UACGAGCAAUAUUACGGGCA the same measures were -1.77 ± 0.089 and -0.925 ± 0.087.
For UACGAGCAAUAUUACGUAGA the same measures were -3.47 ± 0.17 and -2.77 ± 0.29.
On the same counts, the results for UACGAGCAAUAUUACGUCGG are -3.5 ± 0.23 and -1.38 ± 0.15.
As to UACGAGCAAUAUUACGUUUG, the “self-splicing fitness (ln)” value is, setting by setting: (30 °C) -3.84 ± 0.27; (37 °C) -1.94 ± 0.17.
On the same counts, the results for UACUAGCAAUAUUACGAUUA are -0.867 ± 0.13 and 0.62 ± 0.16.
In the case of UACUAGCAAUAUUACGAUUC, the “self-splicing fitness (ln)” value reads like this: (30 °C) -2.3 ± 0.23; (37 °C) -1.76 ± 0.43.
On the same counts, the results for UACUAGCAAUAUUACGCACA are -0.646 ± 0.079 and 0.021 ± 0.092.
On the same counts, the results for UACUAGCAAUAUUACGCCAU are -2.57 ± 0.26 and -3.06 ± 0.33.
For UACUAGCAAUAUUACGCCGA the same measures were -1.25 ± 0.19 and -0.403 ± 0.17.
UACUAGCAAUAUUACGCCUU: the “self-splicing fitness (ln)” value is -1.93 ± 0.15 (30 °C) and -0.434 ± 0.13 (37 °C).
For the sequence UACUAGCAAUAUUACGCGCC, for the setting “37 °C”, the “self-splicing fitness (ln)” value is -1.37 ± 0.37.
UACUAGCAAUAUUACGGGCA: the “self-splicing fitness (ln)” value is, setting by setting: (30 °C) -0.178 ± 0.071; (37 °C) 0.53 ± 0.11.
On the same counts, the results for UACUAGCAAUAUUACGGUUC are -2.29 ± 0.29 and -1.63 ± 0.39.
For UACUAGCAAUAUUACGUAAC the same measures were -2.8 ± 0.17 and -3.33 ± 0.42.
On the same counts, the results for UACUAGCAAUAUUACGUACA are -1.56 ± 0.12 and -0.448 ± 0.13.
UACUAGCAAUAUUACGUAGG: the “self-splicing fitness (ln)” value is -4.09 ± 0.35 (30 °C) and -1.69 ± 0.22 (37 °C).
For UACUAGCAAUAUUACGUAGU the same measures were -3.62 ± 0.22 and -1.65 ± 0.25.
As to UACUAGCAAUAUUACGUAUC, the “self-splicing fitness (ln)” value (30 °C) is -2.06 ± 0.2 and the “self-splicing fitness (ln)” value (37 °C) was -2.9 ± 0.4.
Consider UACUAGCAAUAUUACGUCGC, for which the “self-splicing fitness (ln)” value (30 °C) is -4.8 ± 0.46 and the “self-splicing fitness (ln)” value (37 °C) was -3.62 ± 0.24.

For the origin of these results see the supplement of paper PMC7877785.
